Each block holds one binder with its values, some of them ahead of it. Numbered stars: 1 amine (or outer) side, 2 acyl side, 3 side chain; on linkers, the order of the positions; unused ones are H or OH. Bridge positions count the residues as written; N and C are the ends. Side chains are listed from the residue outwards. Ends that are not written are not given here. * marks the point of attachment. C20 diacid = O=C(O)CCCCCCCCCCCCCCCCCCC(=O)*; γGlu = O=C(O)[C@H](CCC(=O)[*:2])N[*:1]
Assays:
rat calcitonin receptor [1] = target: T1, rat calcitonin receptor (rat, UniProt P32214 25-516); assay: ratio of binding IC50s: rat calcitonin receptor over rat amylin receptor (reference)
T1 construct: whole, on cells; also called rCTR; rat calcitonin (a) receptor
T1 sequence (looked up): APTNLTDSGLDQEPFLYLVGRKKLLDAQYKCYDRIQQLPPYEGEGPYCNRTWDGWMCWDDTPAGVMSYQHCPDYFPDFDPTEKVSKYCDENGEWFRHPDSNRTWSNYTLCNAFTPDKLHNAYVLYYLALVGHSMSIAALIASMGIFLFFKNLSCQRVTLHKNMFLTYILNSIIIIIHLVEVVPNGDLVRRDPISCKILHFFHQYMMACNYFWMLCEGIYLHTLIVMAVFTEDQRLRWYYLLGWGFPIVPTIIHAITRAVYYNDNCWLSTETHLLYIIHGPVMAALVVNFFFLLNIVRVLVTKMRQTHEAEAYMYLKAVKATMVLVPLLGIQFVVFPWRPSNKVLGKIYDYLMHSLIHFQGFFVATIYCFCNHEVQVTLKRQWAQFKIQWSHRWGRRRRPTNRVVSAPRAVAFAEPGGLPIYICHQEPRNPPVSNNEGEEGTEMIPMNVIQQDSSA

[2] = target: T2, human calcitonin receptor (human, UniProt P30988 25-474); assay: ratio of binding IC50s: human calcitonin receptor over human amylin receptor (reference)
T2 construct: whole, on cells; also called hCTR; hCT
T2 sequence (looked up): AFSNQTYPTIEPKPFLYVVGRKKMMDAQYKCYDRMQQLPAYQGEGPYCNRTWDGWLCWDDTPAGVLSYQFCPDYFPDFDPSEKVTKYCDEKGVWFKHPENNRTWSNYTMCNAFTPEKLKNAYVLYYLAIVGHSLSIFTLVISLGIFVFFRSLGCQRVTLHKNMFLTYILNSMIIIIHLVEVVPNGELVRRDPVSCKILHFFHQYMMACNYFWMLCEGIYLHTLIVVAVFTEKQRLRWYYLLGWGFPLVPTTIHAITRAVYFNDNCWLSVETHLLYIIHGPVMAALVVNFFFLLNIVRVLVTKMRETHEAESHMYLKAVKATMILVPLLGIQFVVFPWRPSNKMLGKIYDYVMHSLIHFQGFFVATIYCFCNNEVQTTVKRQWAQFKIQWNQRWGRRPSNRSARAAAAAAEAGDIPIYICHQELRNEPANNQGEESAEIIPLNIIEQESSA
Outline: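 Scintillation proximity competition binding on cell membranes at 35 ng/μL with SPA beads, in 50 mM Hepes pH 7.4, 1 mM CaCl2, 5 mM MgCl₂, 0.1% OA, 0.02% Tween20. Incubated 120 min at 25° C with shaking. IC₅₀ from one-site competition fit.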

rat calcitonin receptor [3] = target: T1, rat calcitonin receptor; assay: SPA competition with 125I-calcitonin, membranes of BHK cells with rat calcitonin receptor (Assay VIII)
[4] = target: T3, rat amylin receptor (rat calcitonin receptor + rat RAMP 3) (rat, UniProt P32214 25-516; Q9JJ73 23-147); assay: SPA competition with 125I-rat amylin, membranes of BHK cells with rat calcitonin receptor + rat RAMP3 (Assay VI)
T3 construct: whole, on cells; also called rAmylin-R; rat amylin 3(a) receptor
T3 sequence (looked up) 1: T1 sequence (looked up)
T3 sequence (looked up) 2: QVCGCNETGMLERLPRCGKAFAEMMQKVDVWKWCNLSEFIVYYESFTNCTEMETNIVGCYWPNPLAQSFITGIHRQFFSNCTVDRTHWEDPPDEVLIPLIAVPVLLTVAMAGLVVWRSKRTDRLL

- Ratio rCT/rAmylin binding (rat calcitonin receptor [1]): 35.8
- Ratio hCT/hAmylin binding [2]: 45.5
- IC50 (rat calcitonin receptor [3]): 20.8 nM
- IC50 [4]: 0.581 nM
B1: N^ε1-[(4S)-4-carboxy-4-(19-carboxynonadecanoylamino)butanoyl]-[His14,Arg17,Pro21,Pro27,His35]-h-amylin (peptide)
peptide: K([γGlu-C20 diacid])CNTATCATQRLAHFLRHSSPNFGAIPSSTNVGSHTY-NH2
modifications: disulfide 2-7; N-terminus assumed
SMILES: CC[C@H](C)[C@H](NC(=O)[C@H](C)NC(=O)CNC(=O)[C@H](Cc1ccccc1)NC(=O)[C@H](CC(N)=O)NC(=O)[C@@H]1CCCN1C(=O)[C@H](CO)NC(=O)[C@H](CO)NC(=O)[C@H](Cc1c[nH]cn1)NC(=O)[C@H](CCCNC(=N)N)NC(=O)[C@H](CC(C)C)NC(=O)[C@H](Cc1ccccc1)NC(=O)[C@H](Cc1c[nH]cn1)NC(=O)[C@H](C)NC(=O)[C@H](CC(C)C)NC(=O)[C@H](CCCNC(=N)N)NC(=O)[C@H](CCC(N)=O)NC(=O)[C@@H](NC(=O)[C@H](C)NC(=O)[C@@H]1CSSC[C@H](NC(=O)[C@@H](N)CCCCNC(=O)CC[C@H](NC(=O)CCCCCCCCCCCCCCCCCCC(=O)O)C(=O)O)C(=O)N[C@@H](CC(N)=O)C(=O)N[C@@H]([C@@H](C)O)C(=O)N[C@@H](C)C(=O)N[C@@H]([C@@H](C)O)C(=O)N1)[C@@H](C)O)C(=O)N1CCC[C@H]1C(=O)N[C@@H](CO)C(=O)N[C@@H](CO)C(=O)N[C@H](C(=O)N[C@@H](CC(N)=O)C(=O)N[C@H](C(=O)NCC(=O)N[C@@H](CO)C(=O)N[C@@H](Cc1c[nH]cn1)C(=O)N[C@H](C(=O)N[C@@H](Cc1ccc(O)cc1)C(N)=O)[C@@H](C)O)C(C)C)[C@@H](C)O
notes: synthetic analogue of human amylin; also called compound 66

- Ratio rCT/rAmylin binding (rat calcitonin receptor [1]): 42.8
- Ratio hCT/hAmylin binding [2]: 63
- IC50 (rat calcitonin receptor [3]): 18 nM
- IC50 [4]: 0.42 nM
B2: N^ε1-[(4S)-4-carboxy-4-(19-carboxynonadecanoylamino)butanoyl]-[His14,Arg17,Pro21,Pro27,Pro31]-h-amylin (peptide)
peptide: K([γGlu-C20 diacid])CNTATCATQRLAHFLRHSSPNFGAIPSSTPVGSNTY-NH2
modifications: disulfide 2-7; N-terminus assumed
SMILES: CC[C@H](C)[C@H](NC(=O)[C@H](C)NC(=O)CNC(=O)[C@H](Cc1ccccc1)NC(=O)[C@H](CC(N)=O)NC(=O)[C@@H]1CCCN1C(=O)[C@H](CO)NC(=O)[C@H](CO)NC(=O)[C@H](Cc1c[nH]cn1)NC(=O)[C@H](CCCNC(=N)N)NC(=O)[C@H](CC(C)C)NC(=O)[C@H](Cc1ccccc1)NC(=O)[C@H](Cc1c[nH]cn1)NC(=O)[C@H](C)NC(=O)[C@H](CC(C)C)NC(=O)[C@H](CCCNC(=N)N)NC(=O)[C@H](CCC(N)=O)NC(=O)[C@@H](NC(=O)[C@H](C)NC(=O)[C@@H]1CSSC[C@H](NC(=O)[C@@H](N)CCCCNC(=O)CC[C@H](NC(=O)CCCCCCCCCCCCCCCCCCC(=O)O)C(=O)O)C(=O)N[C@@H](CC(N)=O)C(=O)N[C@@H]([C@@H](C)O)C(=O)N[C@@H](C)C(=O)N[C@@H]([C@@H](C)O)C(=O)N1)[C@@H](C)O)C(=O)N1CCC[C@H]1C(=O)N[C@@H](CO)C(=O)N[C@@H](CO)C(=O)N[C@H](C(=O)N1CCC[C@H]1C(=O)N[C@H](C(=O)NCC(=O)N[C@@H](CO)C(=O)N[C@@H](CC(N)=O)C(=O)N[C@H](C(=O)N[C@@H](Cc1ccc(O)cc1)C(N)=O)[C@@H](C)O)C(C)C)[C@@H](C)O
notes: synthetic analogue of human amylin; also called compound 62
